The experiment has as its target recombinant gC1q domain of EMILIN1 (UniProt Q9Y6C2). As to the kind of experiment: cell adhesion assay (CAFCA, Centrifugal Assay for Fluorescence-based Cell Adhesion); ligand as substrate in CAFCA miniplates; calcein AM-labelled cells centrifuged onto the substrate, 20 min at 37°C, then centrifuged at 500 rpm; bound cells read by fluorescence; for HaCat cells also with integrin blocking antibodies.
UniProt Q9Y6C2, sequence (Q9Y6C2 22-1016): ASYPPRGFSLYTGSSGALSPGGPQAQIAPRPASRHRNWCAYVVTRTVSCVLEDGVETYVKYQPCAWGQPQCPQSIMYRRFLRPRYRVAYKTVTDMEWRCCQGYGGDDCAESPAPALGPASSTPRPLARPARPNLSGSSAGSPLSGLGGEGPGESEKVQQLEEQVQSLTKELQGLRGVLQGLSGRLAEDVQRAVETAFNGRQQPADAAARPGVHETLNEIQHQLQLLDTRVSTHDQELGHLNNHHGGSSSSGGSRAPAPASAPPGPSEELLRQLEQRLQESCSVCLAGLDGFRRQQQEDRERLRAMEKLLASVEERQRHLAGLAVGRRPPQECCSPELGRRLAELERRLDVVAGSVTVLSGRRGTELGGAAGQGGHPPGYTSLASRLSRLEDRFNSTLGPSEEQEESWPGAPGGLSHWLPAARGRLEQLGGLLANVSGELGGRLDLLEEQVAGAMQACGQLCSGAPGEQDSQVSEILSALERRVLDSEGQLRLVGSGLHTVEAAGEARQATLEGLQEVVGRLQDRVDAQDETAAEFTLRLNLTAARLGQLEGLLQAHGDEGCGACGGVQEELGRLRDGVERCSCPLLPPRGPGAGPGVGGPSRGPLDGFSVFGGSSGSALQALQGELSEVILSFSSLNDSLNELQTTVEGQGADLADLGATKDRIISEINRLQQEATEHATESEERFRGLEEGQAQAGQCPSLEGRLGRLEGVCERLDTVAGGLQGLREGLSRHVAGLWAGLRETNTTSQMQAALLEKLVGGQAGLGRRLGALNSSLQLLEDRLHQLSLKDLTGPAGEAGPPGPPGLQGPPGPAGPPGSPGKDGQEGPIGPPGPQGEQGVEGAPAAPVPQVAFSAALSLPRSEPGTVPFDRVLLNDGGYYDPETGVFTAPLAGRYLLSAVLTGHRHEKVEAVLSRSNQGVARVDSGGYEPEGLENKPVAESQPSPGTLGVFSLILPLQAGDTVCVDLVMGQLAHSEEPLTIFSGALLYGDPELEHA

“α4β1 integrin on HT29 cells transfected with the cytoplasmic tail-deleted α4 chain mutant R974 (from UniProt P05556 21-798) (receptor)”: the percentage of adhesion is 90%.

Regarding “α4β1 integrin on HT29 cells transfected with the wild type α4 integrin chain (from UniProt P13612 34-1032; P05556 21-798) (receptor)”, the percentage of adhesion was 90%.

In the case of “α4β1 integrin on SW480 cells transfected with the wild type α4 integrin chain (from UniProt P13612 34-1032; P05556 21-798) (receptor)”, the percentage of adhesion is 60%.

Regarding “α4β1 integrin on SW480 cells transfected with the cytoplasmic tail-deleted α4 chain mutant R974 (from UniProt P05556 21-798) (receptor)”, the percentage of adhesion was 60%.
